{"source": "patent WO2019173771A1", "binders": {"B1": {"name": "humanized anti-human CD147 hu3A11 antibody (3A11 Lc1 / Hc1) (antibody, V domains shown)", "VH": "EVQLVESGGGLVQPGGSLRLSCAASGFTFSNYWMDWVRQAPGKGLEWVGEIRLKSYNYATHYAASVKGRFTISRDDSKNSVYLQMNSLKTEDTAVYYCTAAGTDYWGQGTLVTVSS", "VL": "DIQMTQSPSSLSASVGDRVTITCRASQSVRTDVGWYQQKPGKAPKLLIYYSSNRYTGVPSRFSGSGSGTDFTLTISSLQPEDFATYYCQQDYSSPYTFGQGTKLEIK"}}, "molecular_target": "human CD147 on human cell lines (KYSE-70, H292, LS174T and other human-derived cell lines) (human) (UniProt P35613)", "test": "FACS on the human KYSE-70 esophageal epithelial cell line, Alexa Fluor 647 anti-human IgG", "data": [{"binder": "B1", "values": [{"measurement": "Kd", "result": 1.65, "unit": "nM"}]}]}
